Experimental data reported in article PMC9482650, “Quantitative fragmentomics allow affinity mapping of interactomes” (Nature Communications, 2022).

Key:
Assay in all cases: holdup assay
Set-up in all cases: key: below the threshold = too weak to quantify, mostly under pKd 3.1 to 4
Conditions in all cases: plain residues with an end cap or a label only (N-terminal biotin on a linker: ado-ado)
DLG4_3, P78352 = target: DLG4_3, P78352
RHPN1, Q8TCX5 = target: T1, RHPN1, Q8TCX5
T1 sequence (Q8TCX5 508-602, limits assumed, looked up): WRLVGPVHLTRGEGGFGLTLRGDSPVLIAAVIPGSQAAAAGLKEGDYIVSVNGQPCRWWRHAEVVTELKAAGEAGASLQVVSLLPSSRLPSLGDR

NHERF4_2, Q86UT5 = target: NHERF4_2, Q86UT5
PDZRN4_1, Q6ZMN7 = target: PDZRN4_1, Q6ZMN7
RAPGEF6, Q8TEU7 = target: T2, RAPGEF6, Q8TEU7
T2 sequence (Q8TEU7 525-625, limits assumed, looked up): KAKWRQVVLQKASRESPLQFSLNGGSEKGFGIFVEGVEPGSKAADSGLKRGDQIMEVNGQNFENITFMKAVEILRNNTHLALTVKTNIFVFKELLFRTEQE

GORASP1, Q9BQQ3 = target: GORASP1, Q9BQQ3
FRMPD1, Q5SYB0 = target: T3, FRMPD1, Q5SYB0
T3 sequence (Q5SYB0 52-145, limits assumed, looked up): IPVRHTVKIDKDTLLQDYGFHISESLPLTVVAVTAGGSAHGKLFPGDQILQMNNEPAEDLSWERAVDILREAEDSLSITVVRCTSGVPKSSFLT

MAGI1_1, Q96QZ7 = target: MAGI1_1, Q96QZ7
PDZRN3_1, Q9UPQ7 = target: T4, PDZRN3_1, Q9UPQ7
T4 sequence (Q9UPQ7 244-349, limits assumed, looked up): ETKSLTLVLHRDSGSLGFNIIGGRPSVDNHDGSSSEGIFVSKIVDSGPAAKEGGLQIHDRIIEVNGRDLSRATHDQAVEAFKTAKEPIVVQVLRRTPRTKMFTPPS

LIN7A, O14910 = target: T5, LIN7A, O14910
T5 sequence (O14910 103-200, limits assumed, looked up): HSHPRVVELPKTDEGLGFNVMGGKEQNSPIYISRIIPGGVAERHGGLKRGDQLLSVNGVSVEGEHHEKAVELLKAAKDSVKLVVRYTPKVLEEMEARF

MAST2, Q6P0Q8 = target: MAST2, Q6P0Q8
GRIP1_5, Q9Y3R0 = target: T6, GRIP1_5, Q9Y3R0
T6 sequence (Q9Y3R0 568-668, limits assumed, looked up): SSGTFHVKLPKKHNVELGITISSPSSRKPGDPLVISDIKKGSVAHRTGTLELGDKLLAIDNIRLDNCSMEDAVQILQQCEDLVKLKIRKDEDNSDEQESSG

LNX1_1, Q8TBB1 = target: LNX1_1, Q8TBB1
DLG5_1, Q8TDM6 = target: DLG5_1, Q8TDM6
TJP3_3, O95049 = target: T7, TJP3_3, O95049
T7 sequence (O95049 375-456, limits assumed, looked up): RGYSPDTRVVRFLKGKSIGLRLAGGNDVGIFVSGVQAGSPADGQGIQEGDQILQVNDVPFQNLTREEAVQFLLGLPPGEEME

PDLIM1, O00151 = target: PDLIM1, O00151
TJP2_1, Q9UDY2 = target: TJP2_1, Q9UDY2
GOPC, Q9HD26 = target: GOPC, Q9HD26
SCRIB_1, Q14160 = target: SCRIB_1, Q14160
GRIP1_3, Q9Y3R0 = target: T8, GRIP1_3, Q9Y3R0
T8 sequence (Q9Y3R0 247-346, limits assumed, looked up): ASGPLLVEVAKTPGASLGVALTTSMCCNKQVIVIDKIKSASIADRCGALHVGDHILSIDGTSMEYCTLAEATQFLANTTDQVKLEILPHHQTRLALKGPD

GORASP2, Q9H8Y8 = target: GORASP2, Q9H8Y8
Inadl_10, Q8NI35 = target: Inadl_10, Q8NI35
GRIP1_2, Q9Y3R0 = target: T9, GRIP1_2, Q9Y3R0
T9 sequence (Q9Y3R0 145-248, limits assumed, looked up): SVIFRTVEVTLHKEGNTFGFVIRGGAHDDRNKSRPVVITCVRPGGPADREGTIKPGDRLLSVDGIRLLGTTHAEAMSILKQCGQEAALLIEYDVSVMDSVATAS

RADIL, Q96JH8 = target: T10, RADIL, Q96JH8
T10 sequence (Q96JH8 971-1071, limits assumed, looked up): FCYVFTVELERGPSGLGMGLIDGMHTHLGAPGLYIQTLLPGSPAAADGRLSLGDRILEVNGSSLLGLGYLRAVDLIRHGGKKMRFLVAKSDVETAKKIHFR

NHERF4_4, Q86UT5 = target: NHERF4_4, Q86UT5
LNX1_3, Q8TBB1 = target: LNX1_3, Q8TBB1
DLG1_1, Q12959 = target: DLG1_1, Q12959
HTRA1, Q92743 = target: HTRA1, Q92743
Sequence of HTRA1, Q92743 (Q92743 360-477): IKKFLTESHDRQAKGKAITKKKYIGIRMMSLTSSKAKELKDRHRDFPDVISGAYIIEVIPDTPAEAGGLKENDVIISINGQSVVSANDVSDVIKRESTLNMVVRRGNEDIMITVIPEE

Sequence of MAGI1_1, Q96QZ7 (Q96QZ7 1-106): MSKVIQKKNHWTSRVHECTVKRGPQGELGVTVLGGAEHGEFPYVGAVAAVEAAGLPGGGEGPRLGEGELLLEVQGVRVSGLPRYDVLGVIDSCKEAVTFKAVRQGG
Sequence of NHERF4_2, Q86UT5 (Q86UT5 220-308): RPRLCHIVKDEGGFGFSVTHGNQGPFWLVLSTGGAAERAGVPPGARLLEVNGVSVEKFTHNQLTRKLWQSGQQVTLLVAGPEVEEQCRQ
Sequence of MAST2, Q6P0Q8 (Q6P0Q8 1099-1202): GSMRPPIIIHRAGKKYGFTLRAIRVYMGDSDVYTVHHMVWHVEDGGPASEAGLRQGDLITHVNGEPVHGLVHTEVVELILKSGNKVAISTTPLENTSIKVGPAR
Sequence of DLG4_3, P78352 (P78352 306-403): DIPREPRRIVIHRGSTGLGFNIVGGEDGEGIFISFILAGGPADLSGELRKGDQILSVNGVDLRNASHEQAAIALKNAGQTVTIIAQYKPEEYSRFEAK
Sequence of PDZRN4_1, Q6ZMN7 (Q6ZMN7 213-318): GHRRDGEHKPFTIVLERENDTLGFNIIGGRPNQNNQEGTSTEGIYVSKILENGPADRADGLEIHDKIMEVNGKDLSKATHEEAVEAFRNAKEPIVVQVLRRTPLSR
Sequence of NHERF4_4, Q86UT5 (Q86UT5 464-550): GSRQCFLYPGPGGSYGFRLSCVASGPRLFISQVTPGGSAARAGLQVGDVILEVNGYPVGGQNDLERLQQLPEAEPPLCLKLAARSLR
Sequence of LNX1_1, Q8TBB1 (Q8TBB1 261-371): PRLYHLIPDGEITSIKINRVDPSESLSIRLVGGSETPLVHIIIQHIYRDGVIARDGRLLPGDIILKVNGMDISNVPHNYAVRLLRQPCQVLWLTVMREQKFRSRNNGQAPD
Sequence of SCRIB_1, Q14160 (Q14160 718-814): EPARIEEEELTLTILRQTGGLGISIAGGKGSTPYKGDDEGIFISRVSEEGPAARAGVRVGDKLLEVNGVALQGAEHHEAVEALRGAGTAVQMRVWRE
Sequence of GORASP1, Q9BQQ3 (Q9BQQ3 1-208): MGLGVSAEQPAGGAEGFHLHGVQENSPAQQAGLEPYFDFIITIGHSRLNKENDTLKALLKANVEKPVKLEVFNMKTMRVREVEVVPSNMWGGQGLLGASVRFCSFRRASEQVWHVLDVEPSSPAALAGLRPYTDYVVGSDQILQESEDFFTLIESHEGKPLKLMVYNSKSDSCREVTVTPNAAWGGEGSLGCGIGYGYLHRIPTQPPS
Sequence of PDLIM1, O00151 (O00151 1-87): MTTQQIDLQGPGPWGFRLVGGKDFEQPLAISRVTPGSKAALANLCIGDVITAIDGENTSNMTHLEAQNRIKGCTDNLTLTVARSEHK
Sequence of Inadl_10, Q8NI35 (Q8NI35 1673-1763): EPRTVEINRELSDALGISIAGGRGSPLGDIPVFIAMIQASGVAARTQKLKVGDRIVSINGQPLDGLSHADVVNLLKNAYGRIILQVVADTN
Sequence of DLG5_1, Q8TDM6 (Q8TDM6 617-713): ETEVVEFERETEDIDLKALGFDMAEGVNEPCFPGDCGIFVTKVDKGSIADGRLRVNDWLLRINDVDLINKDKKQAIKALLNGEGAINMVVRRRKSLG
Sequence of TJP2_1, Q9UDY2 (Q9UDY2 24-128): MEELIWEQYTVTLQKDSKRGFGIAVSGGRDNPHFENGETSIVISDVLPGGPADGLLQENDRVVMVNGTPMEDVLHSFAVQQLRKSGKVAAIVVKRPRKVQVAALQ
Sequence of LNX1_3, Q8TBB1 (Q8TBB1 500-596): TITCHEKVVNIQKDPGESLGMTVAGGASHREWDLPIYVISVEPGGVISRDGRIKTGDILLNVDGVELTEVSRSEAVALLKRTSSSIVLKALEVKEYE

YAEKRMLTEV [KCNA6, P17658]
pKd (DLG4_3, P78352): 3.74
pKd (RHPN1, Q8TCX5): 3.8
pKd (NHERF4_2, Q86UT5): below the threshold
pKd (PDZRN4_1, Q6ZMN7): below the threshold
pKd (RAPGEF6, Q8TEU7): 3.48
pKd (GORASP1, Q9BQQ3): below the threshold
pKd (FRMPD1, Q5SYB0): below the threshold
pKd (MAGI1_1, Q96QZ7): below the threshold
pKd (PDZRN3_1, Q9UPQ7): below the threshold
pKd (LIN7A, O14910): below the threshold
pKd (MAST2, Q6P0Q8): 5.6
pKd (GRIP1_5, Q9Y3R0): below the threshold
pKd (LNX1_1, Q8TBB1): below the threshold
pKd (DLG5_1, Q8TDM6): below the threshold
pKd (TJP3_3, O95049): below the threshold
pKd (PDLIM1, O00151): below the threshold
pKd (TJP2_1, Q9UDY2): below the threshold
pKd (GOPC, Q9HD26): 3.74
pKd (SCRIB_1, Q14160): 3.63
pKd (GRIP1_3, Q9Y3R0): below the threshold
pKd (GORASP2, Q9H8Y8): 3.92
pKd (Inadl_10, Q8NI35): below the threshold
pKd (GRIP1_2, Q9Y3R0): below the threshold
pKd (RADIL, Q96JH8): 3.97
pKd (NHERF4_4, Q86UT5): below the threshold
pKd (LNX1_3, Q8TBB1): below the threshold
pKd (DLG1_1, Q12959): 3.91
pKd (HTRA1, Q92743): 3.91

FLVTEFNVML [DFNB31, Q9P202]
pKd (DLG4_3, P78352): below the threshold
pKd (RHPN1, Q8TCX5): below the threshold
pKd (NHERF4_2, Q86UT5): below the threshold
pKd (PDZRN4_1, Q6ZMN7): below the threshold
pKd (RAPGEF6, Q8TEU7): below the threshold
pKd (GORASP1, Q9BQQ3): 4.32
pKd (FRMPD1, Q5SYB0): below the threshold
pKd (MAGI1_1, Q96QZ7): below the threshold
pKd (PDZRN3_1, Q9UPQ7): below the threshold
pKd (LIN7A, O14910): below the threshold
pKd (MAST2, Q6P0Q8): 5.15
pKd (GRIP1_5, Q9Y3R0): below the threshold
pKd (LNX1_1, Q8TBB1): below the threshold
pKd (DLG5_1, Q8TDM6): below the threshold
pKd (TJP3_3, O95049): below the threshold
pKd (PDLIM1, O00151): 3.75
pKd (TJP2_1, Q9UDY2): below the threshold
pKd (GOPC, Q9HD26): below the threshold
pKd (SCRIB_1, Q14160): 3.86
pKd (GRIP1_3, Q9Y3R0): below the threshold
pKd (GORASP2, Q9H8Y8): below the threshold
pKd (Inadl_10, Q8NI35): below the threshold
pKd (GRIP1_2, Q9Y3R0): below the threshold
pKd (RADIL, Q96JH8): 4.78
pKd (NHERF4_4, Q86UT5): 4.84
pKd (LNX1_3, Q8TBB1): below the threshold
pKd (DLG1_1, Q12959): below the threshold
pKd (HTRA1, Q92743): 4.4

AHGSTRDQSI [KCNB1, Q14721]
pKd (DLG4_3, P78352): below the threshold
pKd (RHPN1, Q8TCX5): below the threshold
pKd (NHERF4_2, Q86UT5): below the threshold
pKd (PDZRN4_1, Q6ZMN7): below the threshold
pKd (RAPGEF6, Q8TEU7): 3.91
pKd (GORASP1, Q9BQQ3): below the threshold
pKd (FRMPD1, Q5SYB0): below the threshold
pKd (MAGI1_1, Q96QZ7): below the threshold
pKd (PDZRN3_1, Q9UPQ7): below the threshold
pKd (LIN7A, O14910): below the threshold
pKd (MAST2, Q6P0Q8): below the threshold
pKd (GRIP1_5, Q9Y3R0): 3.54
pKd (LNX1_1, Q8TBB1): below the threshold
pKd (DLG5_1, Q8TDM6): 4.06
pKd (TJP3_3, O95049): 3.51
pKd (PDLIM1, O00151): below the threshold
pKd (TJP2_1, Q9UDY2): below the threshold
pKd (GOPC, Q9HD26): below the threshold
pKd (SCRIB_1, Q14160): below the threshold
pKd (GRIP1_3, Q9Y3R0): below the threshold
pKd (GORASP2, Q9H8Y8): 3.67
pKd (Inadl_10, Q8NI35): below the threshold
pKd (GRIP1_2, Q9Y3R0): below the threshold
pKd (RADIL, Q96JH8): below the threshold
pKd (NHERF4_4, Q86UT5): 4.01
pKd (LNX1_3, Q8TBB1): below the threshold
pKd (DLG1_1, Q12959): below the threshold
pKd (HTRA1, Q92743): 3.53

PALKNGQYWV [CSPG4, Q6UVK1]
pKd (DLG4_3, P78352): below the threshold
pKd (RHPN1, Q8TCX5): below the threshold
pKd (NHERF4_2, Q86UT5): below the threshold
pKd (PDZRN4_1, Q6ZMN7): below the threshold
pKd (RAPGEF6, Q8TEU7): below the threshold
pKd (GORASP1, Q9BQQ3): 5.29
pKd (FRMPD1, Q5SYB0): below the threshold
pKd (MAGI1_1, Q96QZ7): below the threshold
pKd (PDZRN3_1, Q9UPQ7): below the threshold
pKd (LIN7A, O14910): below the threshold
pKd (MAST2, Q6P0Q8): 4.07
pKd (GRIP1_5, Q9Y3R0): below the threshold
pKd (LNX1_1, Q8TBB1): below the threshold
pKd (DLG5_1, Q8TDM6): below the threshold
pKd (TJP3_3, O95049): 4.81
pKd (PDLIM1, O00151): below the threshold
pKd (TJP2_1, Q9UDY2): 4.6
pKd (GOPC, Q9HD26): below the threshold
pKd (SCRIB_1, Q14160): below the threshold
pKd (GRIP1_3, Q9Y3R0): below the threshold
pKd (GORASP2, Q9H8Y8): 5.82
pKd (Inadl_10, Q8NI35): below the threshold
pKd (GRIP1_2, Q9Y3R0): below the threshold
pKd (RADIL, Q96JH8): 5.17
pKd (NHERF4_4, Q86UT5): 4.05
pKd (LNX1_3, Q8TBB1): below the threshold
pKd (DLG1_1, Q12959): below the threshold
pKd (HTRA1, Q92743): 5.1
